Experimental data taken from article PMC12016552, “Growth-coupled continuous directed evolution by MutaT7 enables efficient and automated enzyme engineering” (Applied and Environmental Microbiology, 2025).

Substrate: O=S1(=O)OC(c2ccc(O)c(Cl)c2)(c2ccc(O[C@@H]3O[C@H](CO)[C@H](O)[C@H](O)[C@H]3O)c(Cl)c2)c2ccccc21
Test: purified protein
Type: biochemical, Pyrococcus furiosus
Details: 25 °C, PBS pH 7.4 (CPRG assay as described for screening; screening buffer contained 2.7% glucose)

B1: CelB (Pyrococcus furiosus) (protein)
chain: MKFPKNFMFGYSWSGFQFEMGLPGSEVESDWWVWVHDKENIASGLVSGDLPENGPAYWHLYKQDHDIAEKLGMDCIRGGIEWARIFPKPTFDVKVDVEKDEEGNIISVDVPESTIKELEKIANMEALEHYRKIYSDWKERGKTFILNLYHWPLPLWIHDPIAVRKLGPDRAPAGWLDEKTVVEFVKFAAFVAYHLDDLVDMWSTMNEPNVVYNQGYINLRSGFPPGYLSFEAAEKAKFNLIQAHIGAYDAIKEYSEKSVGVIYAFAWHDPLAEEYKDEVEEIRKKDYEFVTILHSKGKLDWIGVNYYSRLVYGAKDGHLVPLPGYGFMSERGGFAKSGRPASDFGWEMYPEGLENLLKYLNNAYELPMIITENGMADAADRYRPHYLVSHLKAVYNAMKEGADVRGYLHWSLTDNYEWAQGFRMRFGLVYVDFETKKRYLRPSALVFREIATQKEIPEELAHLADLKFVTRK
notes: homotetramer
Km: 29.1 ± 1.9 µM | kcat: 0.89 ± 0.04 s⁻¹

B2: CelB (Pyrococcus furiosus; E365K/G72E) (protein)
chain: MKFPKNFMFGYSWSGFQFEMGLPGSEVESDWWVWVHDKENIASGLVSGDLPENGPAYWHLYKQDHDIAEKLEMDCIRGGIEWARIFPKPTFDVKVDVEKDEEGNIISVDVPESTIKELEKIANMEALEHYRKIYSDWKERGKTFILNLYHWPLPLWIHDPIAVRKLGPDRAPAGWLDEKTVVEFVKFAAFVAYHLDDLVDMWSTMNEPNVVYNQGYINLRSGFPPGYLSFEAAEKAKFNLIQAHIGAYDAIKEYSEKSVGVIYAFAWHDPLAEEYKDEVEEIRKKDYEFVTILHSKGKLDWIGVNYYSRLVYGAKDGHLVPLPGYGFMSERGGFAKSGRPASDFGWEMYPEGLENLLKYLNNAYKLPMIITENGMADAADRYRPHYLVSHLKAVYNAMKEGADVRGYLHWSLTDNYEWAQGFRMRFGLVYVDFETKKRYLRPSALVFREIATQKEIPEELAHLADLKFVTRK
notes: homotetramer
Km (variant AA10): 19.3 ± 2.5 µM | kcat (variant AA10): 1.16 ± 0.10 s⁻¹

B3: CelB (Pyrococcus furiosus; K436N/L412W/Y416H) (protein)
chain: MKFPKNFMFGYSWSGFQFEMGLPGSEVESDWWVWVHDKENIASGLVSGDLPENGPAYWHLYKQDHDIAEKLGMDCIRGGIEWARIFPKPTFDVKVDVEKDEEGNIISVDVPESTIKELEKIANMEALEHYRKIYSDWKERGKTFILNLYHWPLPLWIHDPIAVRKLGPDRAPAGWLDEKTVVEFVKFAAFVAYHLDDLVDMWSTMNEPNVVYNQGYINLRSGFPPGYLSFEAAEKAKFNLIQAHIGAYDAIKEYSEKSVGVIYAFAWHDPLAEEYKDEVEEIRKKDYEFVTILHSKGKLDWIGVNYYSRLVYGAKDGHLVPLPGYGFMSERGGFAKSGRPASDFGWEMYPEGLENLLKYLNNAYELPMIITENGMADAADRYRPHYLVSHLKAVYNAMKEGADVRGYLHWSWTDNHEWAQGFRMRFGLVYVDFETNKRYLRPSALVFREIATQKEIPEELAHLADLKFVTRK
notes: homotetramer
Km (variant W10): 17.6 ± 3.6 µM | kcat (variant W10): 1.15 ± 0.18 s⁻¹
